Paper PMC10035430

What was measured:
[1] = target: GWS1B form II RubisCO (CbbM) from an uncultivated Gallionellaceae species (uncultivated Gallionellaceae sp. (groundwater aquifer metagenome)); experiment: SEC-MALS
[2] = target: GWS1B form II RubisCO (CbbM) from an uncultivated Gallionellaceae species (uncultivated Gallionellaceae sp. (groundwater aquifer metagenome)); experiment: SEC
[3] = target: GWS1B form II RubisCO (CbbM) from an uncultivated Gallionellaceae species (uncultivated Gallionellaceae sp. (groundwater aquifer metagenome)); experiment: crystal structure

stoichiometry N [1]: 6
stoichiometry N [2]: 6
stoichiometry N [3]: 6
Substance: GWS1B form II RubisCO (CbbM) from an uncultivated Gallionellaceae species (enzyme)
